US20260092093A1 (TJ BIOPHARMA SHANGHAI, published 2026)
Substitutions are numbered along the chain they refer to.

T1: hIL-18Rα ECD-Fc fusion protein (human, UniProt Q13478 22-329)
T1 construct: extracellular domain; captured on Protein A sensor
T1 sequence (looked up): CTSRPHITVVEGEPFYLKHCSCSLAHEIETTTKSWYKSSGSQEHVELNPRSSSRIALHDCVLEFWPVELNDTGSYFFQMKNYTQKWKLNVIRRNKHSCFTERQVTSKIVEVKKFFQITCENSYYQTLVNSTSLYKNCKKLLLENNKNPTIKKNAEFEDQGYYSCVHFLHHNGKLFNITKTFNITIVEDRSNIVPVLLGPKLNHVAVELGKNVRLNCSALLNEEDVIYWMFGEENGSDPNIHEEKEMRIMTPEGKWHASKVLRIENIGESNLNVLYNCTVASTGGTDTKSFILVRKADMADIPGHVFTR

T2: recombinant hIL-18Rα extracellular domain (human, UniProt Q13478 22-329, biotin label (selection) or fluorescent probe (single-clone FACS), sites not given)
T2 construct: extracellular domain; also called hIL-18Rα ECD; hIL-18Rα-ECD
T2 sequence (looked up): T1 sequence (looked up)

B1: IL-18 variant polypeptide LM1 (ligand)
chain: YFPKLKSKLSVIRNLNDQVLFIDQGNRPLFEDMTDSDCRDNAPRTIFIISMYKGSGARGMAVTISVKCEKISTLSCENKIISFKEMNPPDNIKDTKSDIIFFQRSVPGHDNKMQFESSSYEGYFLACEKERDLFKLILKKEDELGDRSIMFTVQNED
notes: soluble, E. coli-made
B2: IL-18 variant polypeptide MM4 (ligand)
chain: B1 chain with K6R, G54L, G56T, A57I, N91G
notes: soluble, E. coli-made
B3: IL-18 variant polypeptide LM3 (ligand)
chain: B1 chain with K6R, V11I, N91G
notes: soluble, E. coli-made
B4: IL-18 variant polypeptide WM6 (ligand)
chain: B1 chain with P3D, G54D, G56Q, A57P, N91S
notes: soluble, E. coli-made
B5: IL-18 variant polypeptide LM4 (ligand)
chain: B1 chain with G54H, G56Y, A57S
notes: soluble, E. coli-made
B6: IL-18 variant polypeptide LM2 (ligand)
chain: B1 chain with K6R, G54L, A57S, N91V
notes: soluble, E. coli-made
B7: IL-18 variant polypeptide WM10 (ligand)
chain: B1 chain with G54D, G56Q, A57P, N91S
notes: soluble, E. coli-made
B8: IL-18 variant polypeptide LM5 (ligand)
chain: B1 chain with P3G, K6R, G54W, G56S, A57Q
notes: soluble, E. coli-made
B9: IL-18 variant polypeptide MM5 (ligand)
chain: B1 chain with P3G, K6G, G54L, G56T, A57E, N91G, R104S
notes: soluble, E. coli-made
B10: IL-18 variant polypeptide WM8 (ligand)
chain: B1 chain with K6R, G54D, G56Q, A57P, N91S
notes: soluble, E. coli-made
B11: IL-18 variant polypeptide WM2 (ligand)
chain: B1 chain with K6R, G54D, G56Q, A57P, K96E
notes: soluble, E. coli-made
B12: SEQ ID NO 45 (ligand)
chain: B1 chain with K6R, G54H, G56Y, A57G, N91A, R104T
B13: SEQ ID NO 24 (ligand)
chain: B1 chain with P3D, K6G, G54W, G56P, A57W
B14: SEQ ID NO 57 (ligand)
chain: B1 chain with G54H, G56R, N91S, R104T
B15: SEQ ID NO 42 (ligand)
chain: B1 chain with P3E, K6R, G54W, G56P, A57D, N91V, R104V
B16: SEQ ID NO 7 (ligand)
chain: B1 chain with G54H, G56T, A57V, N91V
B17: SEQ ID NO 36 (ligand)
chain: B1 chain with K6R, G54W, G56R, A57P, N91S, R104Y
B18: SEQ ID NO 60 (ligand)
chain: B1 chain with G54H, G56S, A57T, N91V, R104C
B19: SEQ ID NO 20 (ligand)
chain: B1 chain with G54F, G56T, A57V, N91G, R104H
B20: SEQ ID NO 19 (ligand)
chain: B1 chain with K6R, G54W, G56Y, A57P, N91S, R104S
B21: SEQ ID NO 47 (ligand)
chain: B1 chain with K6R, G54L, G56T, A57V, N91G, R104H
B22: SEQ ID NO 46 (ligand)
chain: B1 chain with K6G, G54H, G56D, A57P, N91V, R104M
B23: SEQ ID NO 16 (ligand)
chain: B1 chain with K6T, G54H, G56T, A57Y, N91A, N155K
B24: SEQ ID NO 53 (ligand)
chain: B1 chain with K6R, G54L, A57W, N91V
B25: SEQ ID NO 32 (ligand)
chain: B1 chain with K6R, G54H, G56S, A57R, N91I, R104Y
B26: SEQ ID NO 52 (ligand)
chain: B1 chain with P3W, G54P, G56S, A57H, N91V, R104L
B27: SEQ ID NO 40 (ligand)
chain: B1 chain with G54L, N91V
B28: SEQ ID NO 18 (ligand)
chain: B1 chain with F2L, K6R, G54W, G56T, A57S, N91S, R104S, N155K
B29: IL-18 variant polypeptide M8 (ligand)
chain: B1 chain with K6R, G54W, G56P, N91A, R104L
B30: SEQ ID NO 29 (ligand)
chain: B1 chain with K6T, G54H, G56Y, N91V
B31: SEQ ID NO 25 (ligand)
chain: B1 chain with G54L, A57V, N91T
B32: SEQ ID NO 10 (ligand)
chain: B1 chain with P3T, G54W, G56S, A57D, N91A, R104V
B33: SEQ ID NO 51 (ligand)
chain: B1 chain with K6R, G54W, G56A, A57V, N91S, R104S
B34: SEQ ID NO 14 (ligand)
chain: B1 chain with K6R, G54Y, G56T, N91V, R104H
B35: SEQ ID NO 48 (ligand)
chain: B1 chain with P3F, G54P, G56P, A57P, N91T, R104Y
B36: SEQ ID NO 23 (ligand)
chain: B1 chain with A57T, N91A
B37: IL-18 variant polypeptide M36 (ligand)
chain: B1 chain with K6S, G54A, G56D, A57Q, N91G
B38: SEQ ID NO 5 (ligand)
chain: B1 chain with K6R, G54H, G56T, A57V, N91V
B39: IL-18 variant polypeptide M6 (ligand)
chain: B1 chain with K6R, G54W, G56T, A57P, N91V, R104T
B40: IL-18 variant polypeptide MM1 (ligand)
chain: B1 chain with G54L, G56T, A57Q, N91V
B41: SEQ ID NO 15 (ligand)
chain: B1 chain with K6R, G54S, G56R, A57G, N91V, R104T
B42: SEQ ID NO 6 (ligand)
chain: B1 chain with K6S, G54W, G56P, A57W, N91D
B43: SEQ ID NO 13 (ligand)
chain: B1 chain with K6R, G54W, G56K, A57T, N91V, R104Y
B44: SEQ ID NO 34 (ligand)
chain: B1 chain with G54Q, G56T, A57W, N91C
B45: SEQ ID NO 37 (ligand)
chain: B1 chain with K6R, A57I, N91G
B46: SEQ ID NO 31 (ligand)
chain: B1 chain with G54W, G56A, A57R, N91P, R104S
B47: SEQ ID NO 30 (ligand)
chain: B1 chain with G54H, G56I, A57H, N91V, R104V
B48: SEQ ID NO 33 (ligand)
chain: B1 chain with P3G, G54L, G56T, A57R, N91P

These binders were tested against T1, hIL-18Rα ECD-Fc fusion protein (assay: BLI (Octet RED96), hIL-18Rα ECD-Fc on Protein A sensor).
Method: The affinities of IL-18 variant polypeptides for hIL-18Rα were assessed by Biolayer Interferometry (BLI) on Octet RED96 using Protein A sensor coated with hIL-18Rα ECD-Fc fusion protein, and WT hIL-18 was used as a control.

Row | Kd | Response (nm) | koff | kon | Binder
1 | 86.2 nM | 0.0618 nm | 0.047 s⁻¹ | 545000 M⁻¹ s⁻¹ | B1
2 | 9.82 nM | 0.0238 nm | 0.0375 s⁻¹ | 3.82e+06 M⁻¹ s⁻¹ | B2
3 | 14.6 nM | 0.0422 nm | 0.0328 s⁻¹ | 2.24e+06 M⁻¹ s⁻¹ | B3
4 | 10.1 nM | 0.304 nm | 0.00199 s⁻¹ | 196000 M⁻¹ s⁻¹ | B4
5 | 4.17 nM | 0.0262 nm | 0.0169 s⁻¹ | 4.06e+06 M⁻¹ s⁻¹ | B5
6 | 37.9 nM | 0.0338 nm | 0.052 s⁻¹ | 1.37e+06 M⁻¹ s⁻¹ | B6
7 | 12.9 nM | < 0.02 nm | 0.007 s⁻¹ | 543000 M⁻¹ s⁻¹ | B7
8 | 19.6 nM | 0.038 nm | 0.0411 s⁻¹ | 2.1e+06 M⁻¹ s⁻¹ | B8
9 | 104 nM | 0.0326 nm | 0.077 s⁻¹ | 743000 M⁻¹ s⁻¹ | B9
10 |  | < 0.02 nm |  |  | B10
11 |  | < 0.02 nm |  |  | B11

These binders were tested against T2, recombinant hIL-18Rα extracellular … (assay: single-clone FACS, yeast display, 10 nM labelled hIL-18Rα ECD).
Method: Following the screens described in Example 2, single clone FACS analysis was performed to verify the binding of selected yeast cell surface-expressed IL-18 variant polypeptides from Round 4 and Round 5 to 10 nM hIL-18Rα-ECD. Briefly, each yeast clone at the same density was incubated with 10 nM IL-18Rα-ECD labeled by fluorescent probe, respectively, followed by washing step. Then the ratio of fluorescent positive IL-18Rα ECD binding yeasts in the population of each clone were analyzed.

Row | % of fluorescence positive cells | Binder
12 | 86.1% | B12
13 | 90.1% | B13
14 | 79% | B14
15 | 87.2% | B15
16 | 95.5% | B16
17 | 88.5% | B17
18 | 76.5% | B18
19 | 91.7% | B19
20 | 97.9% | B20
21 | 84.7% | B21
22 | 84.9% | B22
23 | 93% | B23
24 | 82.4% | B24
25 | 88.9% | B25
26 | 83% | B26
27 | 87.9% | B27
28 | 92% | B28
29 | 73.4% | B29
30 | 89.7% | B30

Row | % of fluorescence positive cells | Binder
31 | 90% | B31
32 | 94.8% | B32
33 | 83.1% | B33
34 | 93.2% | B34
35 | 83.8% | B35
36 | 90.8% | B36
37 | 14.8% | B37
38 | 95.6% | B38
39 | 79% | B39
40 | 91.6% | B40
41 | 93% | B41
42 | 95.5% | B42
43 | 93.2% | B43
44 | 88.6% | B44
45 | 88.4% | B45
46 | 89.5% | B46
47 | 89.7% | B47
48 | 88.8% | B48
